This note sets out measurements from US20140056907A1 (Regeneron, published 2014).

In assay [1] the target is T1, human ASIC1 (human, UniProt P78348 1-528).
T1 sequence: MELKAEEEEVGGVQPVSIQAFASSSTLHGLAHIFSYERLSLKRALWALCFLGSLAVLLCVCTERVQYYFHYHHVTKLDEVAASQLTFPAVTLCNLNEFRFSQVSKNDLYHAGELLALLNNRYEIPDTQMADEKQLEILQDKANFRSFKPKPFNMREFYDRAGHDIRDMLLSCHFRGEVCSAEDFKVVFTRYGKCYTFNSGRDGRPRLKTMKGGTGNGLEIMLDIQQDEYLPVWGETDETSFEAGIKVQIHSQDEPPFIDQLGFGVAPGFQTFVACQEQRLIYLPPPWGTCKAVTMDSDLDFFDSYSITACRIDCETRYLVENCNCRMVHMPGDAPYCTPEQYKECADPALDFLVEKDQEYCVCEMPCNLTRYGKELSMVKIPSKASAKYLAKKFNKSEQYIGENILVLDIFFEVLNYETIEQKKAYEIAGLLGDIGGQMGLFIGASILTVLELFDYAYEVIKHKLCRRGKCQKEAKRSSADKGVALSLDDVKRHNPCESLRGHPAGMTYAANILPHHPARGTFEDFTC
Nature of the assay: cell-based or functional assay.

The target of assay [2] is T2, human ASIC1/ASIC3 channels (co-expressed human ASIC1a and human ASIC3) (human, UniProt Q9UHC3 1-531).
T2 construct: whole, on cells; 3T3 cells co-expressing both subunits; also called 3T3/hASIC1/3; 3T3-hASIC1/ASIC3
T2 sequence 1: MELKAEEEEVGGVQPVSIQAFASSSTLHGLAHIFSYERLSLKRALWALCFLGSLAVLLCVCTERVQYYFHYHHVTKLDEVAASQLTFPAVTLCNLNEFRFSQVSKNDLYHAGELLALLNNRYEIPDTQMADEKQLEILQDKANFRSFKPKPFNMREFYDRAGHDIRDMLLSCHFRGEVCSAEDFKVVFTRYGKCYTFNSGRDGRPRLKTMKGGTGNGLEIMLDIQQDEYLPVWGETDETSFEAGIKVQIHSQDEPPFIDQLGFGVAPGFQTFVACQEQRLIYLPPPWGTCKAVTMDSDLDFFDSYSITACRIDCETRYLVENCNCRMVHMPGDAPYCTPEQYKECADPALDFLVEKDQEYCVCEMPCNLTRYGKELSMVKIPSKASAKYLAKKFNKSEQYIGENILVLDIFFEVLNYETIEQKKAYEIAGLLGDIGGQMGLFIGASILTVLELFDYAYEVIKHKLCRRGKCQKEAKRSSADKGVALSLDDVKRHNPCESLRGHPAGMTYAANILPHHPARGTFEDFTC
T2 sequence 2: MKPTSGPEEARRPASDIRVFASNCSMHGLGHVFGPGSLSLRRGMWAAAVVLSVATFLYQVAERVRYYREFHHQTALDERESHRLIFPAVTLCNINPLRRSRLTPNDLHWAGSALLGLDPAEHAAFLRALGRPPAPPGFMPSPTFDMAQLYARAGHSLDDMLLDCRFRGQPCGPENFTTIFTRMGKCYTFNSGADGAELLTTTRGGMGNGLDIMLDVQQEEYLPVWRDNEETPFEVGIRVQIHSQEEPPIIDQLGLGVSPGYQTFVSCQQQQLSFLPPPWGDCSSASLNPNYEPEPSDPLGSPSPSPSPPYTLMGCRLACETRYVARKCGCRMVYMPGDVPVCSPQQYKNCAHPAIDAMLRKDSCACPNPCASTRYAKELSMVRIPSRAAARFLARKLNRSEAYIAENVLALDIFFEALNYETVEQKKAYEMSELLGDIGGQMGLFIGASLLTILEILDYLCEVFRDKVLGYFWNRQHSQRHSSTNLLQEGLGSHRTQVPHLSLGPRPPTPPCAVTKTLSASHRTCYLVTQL
In words: FACS, 3T3/hASIC1/3 cells, 10 nM antibody. From the text: (§1) For these experiments, four cell lines were constructed: (a) a mouse fibroblast 3T3 cell line stably transfected to overexpress full length human ASIC3 (3T3/hASIC3; amino acids 1-531 of NCBI accession number NP_{—}004760.1), (b) a 3T3 cell line stably transfected to co-express full length human ASIC1a and human ASIC3 (3T3/hASIC1/3; amino acids 1-528 of NCBI accession number NP_{—}001086.2 and amino acids 1-531 of NCBI accession number NP_{—}004760.1), (c) […] a stably transfected 3T3 cell line expressing the full-length mouse ASIC3 channel (3T3/mASIC3; amino acids 1-530 of NCBI accession number NP_{—}892045.2), and (d) a 3T3 cell line stably transfected to co-express full length mouse ASIC1a and mouse ASIC3 (3T3/mASIC1/3; amino acids 1-526 of NCBI accession number NP_{—}033727 and amino acids 1-530 of NCBI accession number NP_{—}892045.2). Antibody binding was determined using flow cytometry (FACS).
(§2) To perform the FACS binding experiments, adherent cells were collected with cold Millipore Accutase 3-5 minutes, spun and resuspended in ice-cold FACS buffer (PBS, 2% HI-FBS and 0.09% Na-azide). Anti-ASIC1 antibody at final concentrations of 10 nM was added for 20-30 minutes on ice. Cells were washed with 900 μL ice-cold FACS buffer, spun, and resuspended in 100 μL ice-cold FACS buffer. A secondary antibody which recognizes human Fc (Jackson Immuno Research, #109-136-098) and is conjugated to allophycocyanin, was then added to the cell mixture at a final concentration of 2.5 ug/mL. After incubating for 20 minutes on ice, the cells were washed and resuspended in FACS buffer, then sorted and analyzed on a flow cytometer (FACSCanto II, BD Biosciences, San Jose, Calif.) to determine relative binding by the candidate antibodies to the tested cell lines. Histograms of cells stained with anti-ASIC1 antibodies were compared with those of cells stained with secondary antibody alone. Percentage of ASIC1 signal over secondary antibody alone was calculated using FlowJo software (Tree Star, Ashland, Oreg.).

Assay [3] deals with T1, human ASIC1. In words: FACS titration, 3T3/hASIC1 cells. As to the method: To perform the FACS binding experiments, adherent cells were collected using 1 mM EDTA in PBS, then washed, and re-suspended in cold PBS containing 5% FBS. For each binding experiment, each anti-ASIC1 antibody ([…] or ND7 cells) was added to 250,000 cells in 500 μL of PBS with 5% FBS. After incubation for 20 minutes at room temperature, a secondary antibody which recognizes human Fc (Cat. No. 109-136-098, Jackson ImmunoResearch Laboratories, Inc., West Grove, Pa.) or mouse Fc (Cat. No. 550826, BD Biosciences, San Jose, Calif.) and is conjugated to allophycocyanin, was then added to the cell mixture at a final concentration of 13.3 nM. After incubating for 20 minutes on ice, the cells were washed and resuspended in PBS containing 5% FBS, then sorted and analyzed on a flow cytometer (FACSCalibur, BD Biosciences, San Jose, Calif.) to determine relative binding by the candidate antibodies to the tested cell lines. Histograms of cells stained with anti-ASIC1 antibodies were compared with those of cells stained with secondary antibody alone. Percentage of ASIC1 signal over secondary antibody alone was calculated using FlowJo software (Tree Star, Ashland, Oreg.).

The next assay addresses T3, human ASIC3 (human, UniProt Q9UHC3 1-531).
T3 construct: whole, on cells; Expressed on 3T3 cells (3T3/hASIC3) or HEK293 cells (HEK/hASIC3-QCells); also called hASIC3
T3 sequence (looked up): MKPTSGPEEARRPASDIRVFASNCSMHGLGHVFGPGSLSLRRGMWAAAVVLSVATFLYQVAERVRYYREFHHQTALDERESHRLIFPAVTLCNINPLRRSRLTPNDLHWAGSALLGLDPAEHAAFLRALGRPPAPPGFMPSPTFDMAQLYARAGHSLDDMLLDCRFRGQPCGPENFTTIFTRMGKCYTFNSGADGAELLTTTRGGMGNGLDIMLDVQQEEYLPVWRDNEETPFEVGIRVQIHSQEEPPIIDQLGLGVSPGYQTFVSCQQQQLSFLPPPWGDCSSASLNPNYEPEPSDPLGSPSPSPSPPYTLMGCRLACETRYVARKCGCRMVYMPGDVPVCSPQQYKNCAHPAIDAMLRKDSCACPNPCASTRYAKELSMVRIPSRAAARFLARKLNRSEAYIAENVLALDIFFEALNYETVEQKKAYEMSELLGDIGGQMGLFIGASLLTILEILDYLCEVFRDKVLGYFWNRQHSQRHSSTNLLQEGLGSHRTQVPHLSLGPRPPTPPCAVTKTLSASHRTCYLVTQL
Nature of the assay: FACS, 3T3/hASIC3 cells, 10 nM antibody.
Text: as §1, §2

Another assay concerns the target T4, mouse ASIC1a (mouse, UniProt Q6NXK8 1-526).
T4 construct: whole, on cells; Expressed on stably transfected 3T3 cells (3T3/mASIC1a); also called mASIC1a
T4 sequence (looked up): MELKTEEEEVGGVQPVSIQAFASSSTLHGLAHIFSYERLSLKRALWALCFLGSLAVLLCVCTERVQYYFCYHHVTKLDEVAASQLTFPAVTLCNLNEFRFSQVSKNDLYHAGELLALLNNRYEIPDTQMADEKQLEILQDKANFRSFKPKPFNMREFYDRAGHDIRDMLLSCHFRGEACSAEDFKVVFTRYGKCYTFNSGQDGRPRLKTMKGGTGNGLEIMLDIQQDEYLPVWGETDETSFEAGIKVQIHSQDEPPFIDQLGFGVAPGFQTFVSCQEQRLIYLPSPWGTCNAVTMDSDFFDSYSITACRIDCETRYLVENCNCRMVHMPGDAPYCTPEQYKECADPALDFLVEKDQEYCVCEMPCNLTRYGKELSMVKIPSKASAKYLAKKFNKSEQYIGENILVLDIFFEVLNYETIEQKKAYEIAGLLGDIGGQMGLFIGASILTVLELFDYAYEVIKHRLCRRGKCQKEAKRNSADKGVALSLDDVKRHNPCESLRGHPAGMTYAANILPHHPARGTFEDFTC
Nature of the assay: FACS, 3T3/mASIC1a cells. The text has this:
To further characterize anti-ASIC1 antibodies, their ability to bind either (a) a mouse fibroblast 3T3 cell line stably transfected to overexpress full length human ASIC1 (3T3/hASIC1; amino acids 1-528 of NCBI accession number NP_{—}001086.2 [SEQ ID NO:401]), (b) a 3T3 cell line stably transfected to over express full length mouse ASIC1a (3T3/mASIC1a; amino acids 1-526 of NCBI accession number NP_{—}033727), or (c) a ND7 cell line (ECACC, #92090903) that is a fusion cell line of mouse neuroblastoma and rat dorsal root ganglia that endogenously expresses rat ASIC1, was determined using flow cytometry (FACS). ND7 cells were differentiated by replacing the culture media with low-serum media (0.5% FBS) containing 1 mM dibutyryl-cAMP (Cat. No. sc-201567A, Santa Cruz Biotechnology, Inc., Santa Cruz, Calif.). FACS binding was tested for some antibodies on both undifferentiated ND7 cells and differentiated ND7 cells.
To perform the FACS binding experiments, adherent cells were collected using 1 mM EDTA in PBS, then washed, and re-suspended in cold PBS containing 5% FBS. For each binding experiment, each anti-ASIC1 antibody (at final concentrations of 10 nM of purified antibodies or 3.3 nM for antibody supernatants for binding to 3T3/hASIC1 cells and 5 nM for binding to 3T3/mASIC1a or ND7 cells) was added to 250,000 cells in 500 μL of PBS with 5% FBS. After incubation for 20 minutes at room temperature, a secondary antibody which recognizes human Fc (Cat. No. 109-136-098, Jackson ImmunoResearch Laboratories, Inc., West Grove, Pa.) or mouse Fc (Cat. No. 550826, BD Biosciences, San Jose, Calif.) and is conjugated to allophycocyanin, was then added to the cell mixture at a final concentration of 13.3 nM. After incubating for 20 minutes on ice, the cells were washed and resuspended in PBS containing 5% FBS, then sorted and analyzed on a flow cytometer (FACSCalibur, BD Biosciences, San Jose, Calif.) to determine relative binding by the candidate antibodies to the tested cell lines. Histograms of cells stained with anti-ASIC1 antibodies were compared with those of cells stained with secondary antibody alone. Percentage of ASIC1 signal over secondary antibody alone was calculated using FlowJo software (Tree Star, Ashland, Oreg.).

Assay [4] has as its target T1, human ASIC1. Nature of the assay: cell-based or functional assay. The source holds these as a separate data set.
The target in assay [5] is T1, human ASIC1. In words: cell-based or functional assay. This is another data set of the same source.

B1: H1M6716N (antibody, mouse IgG1, V domains shown)
VH: QVQLVQSGAEVKKPGASVKVSCKASGYTFTIYDINWVRQATGQGLEWMGWMNPRSGSTGYSQKFQGRVTMTRNTSINTAFMELSSLRSEDTAVYYCVRGQLVLGYWGQGTLVTVSS
VL: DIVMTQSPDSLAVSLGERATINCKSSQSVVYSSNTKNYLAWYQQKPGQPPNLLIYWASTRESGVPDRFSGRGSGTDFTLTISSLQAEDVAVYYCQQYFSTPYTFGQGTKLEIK
For the molecule B1, in the assay with human ASIC1 [1], the “FLIPR Dose Curve, pH 5.0 % Block” value worked out at 25%; the “FLIPR Dose Curve, pH 5.5 % Block” value turned out to be 37%; the “FLIPR Dose Curve, pH 5.5 IC50” value stood at 1.1 nM. In assay [2], the binding result is reported as “binds”. Besides, in the assay with human ASIC1 [3], the EC50 is 0.023 nM. For the same molecule, the binding result with human ASIC3 is “binds”.

B2: H4H6366P (antibody, human IgG4, V domains shown)
VH: EVQLVESGGDLIQPGGSLRLSCIASGFTFRGYAMSWVRQAPGEGLDWVSGISSGGGNTYYADSVKGRFTISRDNSKNTLYLQMNSLRVEDTAVYYCAKDRGGVRDFYYGLDVWGQGTTVTVSS
VL: DIQMTQSPSTLSASVGDRVTITCRASQSIYSWLAWYQQKPGKAPKLLIYKASSLESGVPSRFSGSGSGTDFTLTISSLQPDDFTTYYCQQYLSYSRTFGQGTKVEIK
Turning to B2, the binding result with mouse ASIC1a is “binds”. In addition, the “Current inhibition (%) at 100 nM antibody, Q-Patch, pH 6.0” value in the assay with human ASIC1 [4] was 72%. Further, in the assay with human ASIC1 [5], the “apparent IC50, human ASIC1 current, Q-Patch” value is at most 10 nM. The molecule further gave an EC50 in the assay with human ASIC1 [3] of 1 nM.
